Tests used:
[1] = molecular target: Complement 1q binding protein (C1qBP), recombinant His-tagged, residues 75-282 (human); assay: dynamic and static light scattering (DLS/SLS); C1qBP at 0.8 mg/ml, 20 mM HEPES pH 7.4, 37°C, with 2.5 mM CaCl2; trimer to dimer of trimers
[2] = molecular target: Complement 1q binding protein (C1qBP), recombinant His-tagged, residues 75-282 (human); assay: SEC-MALS; Superdex 200 10/300 GL, 20 mM Na2HPO4, 20 mM NaCl, pH 6.5; proteins at 2-4 mg/ml alone or CypD:C1qBP mixture at 2:1 molar ratio; eluted complex checked by SDS-PAGE

| stoichiometry N [1] | stoichiometry N [2] | stoichiometry N (CypD per C1qBP trimer) [2] | Substance |
| --- | --- | --- | --- |
| 6 | 3 | – | Complement 1q binding protein (C1qBP), recombinant His-tagged, residues 75-282 (natural protein) |
| – | – | 1 | Cyclophilin D (CypD), recombinant, residues 44-207 (enzyme) |

From paper PMC12751049
